Laboratory results published in paper PMC9119546, “MDM2 E3 ligase activity is essential for p53 regulation and cell cycle integrity” (PLoS Genetics, 2022).

What was measured:
[1] = target: T1, HA-HDM2L468A (human, recombinant) (human, UniProt Q00987 1-491, L468A); assay: pull-down; 500 ng FLAG-MDM4 with 500 ng HA-HDM2 or HA-HDM2L468A in NP40 buffer (20 mM Tris-HCl pH 8.0, 150 mM NaCl, 0.5% NP40); anti-FLAG M2 beads, 1 hour at room temperature; eluted with 3xFLAG peptide; blot for HA; conditions: both partners purified
T1 construct: human MDM2 (HDM2) with L468A; also called HA-HDM2LA; mutant HDM2 (HA-HDM2L468A); source: insect cell expression, purified as described previously [13]; not shown: HA, N-terminal, kept
T1 sequence (Q00987 whole entry L468A): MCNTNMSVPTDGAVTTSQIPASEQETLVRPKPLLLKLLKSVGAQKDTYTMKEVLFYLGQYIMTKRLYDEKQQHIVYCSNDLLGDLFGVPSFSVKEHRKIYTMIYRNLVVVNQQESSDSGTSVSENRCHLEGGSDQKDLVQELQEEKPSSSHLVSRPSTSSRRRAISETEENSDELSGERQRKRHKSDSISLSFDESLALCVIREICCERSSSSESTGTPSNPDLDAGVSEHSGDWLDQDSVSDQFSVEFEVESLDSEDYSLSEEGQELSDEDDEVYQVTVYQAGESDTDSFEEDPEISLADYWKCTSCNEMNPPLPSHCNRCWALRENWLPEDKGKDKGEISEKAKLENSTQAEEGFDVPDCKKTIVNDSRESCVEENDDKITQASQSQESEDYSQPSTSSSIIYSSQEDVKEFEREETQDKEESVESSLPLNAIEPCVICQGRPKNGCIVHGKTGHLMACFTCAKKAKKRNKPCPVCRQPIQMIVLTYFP

[2] = target: T2, HA-HDM2 (human, recombinant, wild type) (human, UniProt Q00987 1-491); assay: as above; conditions: both partners purified
T2 construct: human MDM2 (HDM2); also called HA-HDM2 (WT); HA-MDM2 (human); source: insect cell expression, purified as described previously [13]; not shown: HA, N-terminal, kept
T2 sequence (Q00987 whole entry): as the sequence (Q00987 whole entry L468A) above, with A468L counted along it

B1: human recombinant FLAG-MDM4 (natural protein, UniProt O15151 1-490, looked up)
chain: MTSFSTSAQCSTSDSACRISPGQINQVRPKLPLLKILHAAGAQGEMFTVKEVMHYLGQYIMVKQLYDQQEQHMVYCGGDLLGELLGRQSFSVKDPSPLYDMLRKNLVTLATATTDAAQTLALAQDHSMDIPSQDQLKQSAEESSTSRKRTTEDDIPTLPTSEHKCIHSREDEDLIENLAQDETSRLDLGFEEWDVAGLPWWFLGNLRSNYTPRSNGSTDLQTNQDVGTAIVSDTTDDLWFLNESVSEQLGVGIKVEAADTEQTSEEVGKVSDKKVIEVGKNDDLEDSKSLSDDTDVEVTSEDEWQCTECKKFNSPSKRYCFRCWALRKDWYSDCSKLTHSLSTSDITAIPEKENEGNDVPDCRRTISAPVVRPKDAYIKKENSKLFDPCNSVEFLDLAHSSESQETISSMGEQLDNLSEQRTDTENMEDCQNLLKPCSLCEKRPRDGNIIHGRTGHLVTCFHCARRLKKAGASCPICKKEIQLVIKVFIA
notes: human MDM4 (HDM4); also called FLAG-M4; HDM4; source: insect cell expression, purified as described previously [13]; not shown: FLAG, N-terminal, kept
B1: binds [1]; binds [2].
